The source of these data is patent US20250000992A1 (Eli Lilly, published 2025).

Numbering of substitutions follows the chain as printed.

Assay [1] has as its target T1, Sortilin receptor on HEK293 cells (UniProt Q99523 78-831, limits assumed). The assay is described as follows: cell-based or functional assay.
Assay [2] deals with T1, Sortilin receptor on HEK293 cells. The assay can be described thus: told with the HEK293 cathepsin D assay (FIG. 5); no direct binding assay described.
The target of assay [3] is Human TfR on HEK293 cells (human, UniProt P02786 1-760). The assay is described as follows: cell-based or functional assay.
Assay [4] has as its target T2, Human TfR1 ECD, hexa-histidine tagged (human, UniProt P02786 89-760).
T2 construct: extracellular domain; Made in 293 cells, purified by IMAC and SEC; amine coupled to a CM3 chip; also called hTfR1; not shown: hexa-histidine tag
The assay is described as follows: SPR, Biacore T200, 25 C, His-tagged ECD amine coupled to CM3 chip, construct injected, 1:1 fit. Here is the method:
(§1) To determine the binding kinetics and affinity of H09-PGRN and BACDE to human TfR1 (hTfR1), human TfR2 (hTfR2) and cynomolgus TfR1, binding affinities and kinetics for antibody to antigen were determined using a BIACORE® T200 instrument. The binding kinetics and affinity of antibodies H09-PGRN and BACDE to human TfR1 ECD were determined using surface plasmon resonance biosensor such as BIAcore® T200 (GE Healthcare, Piscataway, N.J.). Briefly described, BIAcore® T200 instrument is used to measure the binding kinetics for Sandwich Ex. 1 (H09-PGRN-C90.43) and Sandwich Ex. 2 (H09-PGRNΔpGF-C90.43 to hTfR1, hTfR2 and cyno Tfr1 via surface plasmon resonance (SPR) at 25° C. Samples are dissolved in 1×HBS-EP+running buffer (Teknova cat. #H802) and His tagged ECD of the hTfR1, hTfR2, and cyno TfR was amine coupled to the Cytiva CM3 Series S sensor chip.
(§2) Binding is evaluated using multiple analytical cycles. Each cycle is performed at 25° C. at a flow rate of 50 μl/min for ligand association and dissociation. Each kinetic cycle consists of the following steps: injection of the Sandwich Ex. 1 (H09-PGRN-C90.43) and Sandwich Ex. 2 (H09-PGRNΔpGF-C90.43) over all four flow cells (starting at 125 nM and using two-fold serial dilutions for each cycle) for 240 seconds and followed by 900 seconds for dissociation phase, and regeneration using 3 M MgCl2 […] over a 30 s contact time. Association (i e., kₒₙ) and dissociation rates (i.e., Koff) for each are evaluated using standard double referencing and fit to “1:1 (Langmuir) binding” model in the BiaEvaluation software in batch mode. The affinity (KD) is calculated from the binding kinetics according to the relationship K)=Koff/Kon.
On the technique in general: Surface plasmon resonance follows binding to a sensor surface in real time, without labels.

The target in assay [5] is T3, Cynomolgus TfR1 ECD, His tagged (cynomolgus, UniProt H9EXL1 89-760 (rhesus entry)).
T3 construct: extracellular domain; Purchased from SYNGENE; also called cyno TfR1; cyno Tfr1; not shown: His tag
Described as above. The method, then: as §1, §2

B1: Sandwich Ex. 3 (8D3-PGRN-C90.43) (Fab)
heavy: EVQLVESGGGLVQPGNSLTLSCVASGFTFSNYGMHWIRQAPKKGLEWIAMIYYDSSKMNYADTVKGRFTISRDNSKNTLYLEMNSLRSEDTAMYYCAVPTSHYVVDVWGQGVSVTVSSASTKGPCVFPLAPSSKSTSGGTAALGCLVKDYFPEPVTVSWNSGALTSGVHTFPAVLQSSGLYSLSSVVTVPSSSLGTQTYICNVNHKPSNTKVDKKVEPKSCDKTHTGGGGQGGGGQGGGGQTRCPDGQFCPVACCLDPGGASYSCCRPLLDKWPTTLSRHLGGPCQVDAHCSAGHSCIFTVSGTSSCCPFPEAVACGDGHHCCPRGFHCSADGRSCFQRSGNNSVGAIQCPDSQFECPDFSTCCVMVDGSWGCCPMPQASCCEDRVHCCPHGAFCDLVHTRCITPTGTHPLAKKLPAQRTNRAVALSSSVMCPDARSRCPDGSTCCELPSGKYGCCPMPNATCCSDHLHCCPQDTVCDLIQSKCLSKENATTDLLTKLPAHTVGDVKCDMEVSCPDGYTCCRLQSGAWGCCPFTQAVCCEDHIHCCPAGFTCDTQKGTCEQGPHQVPWMEKAPAHLSLPDPQALKRDVPCDNVSSCPSSDTCCQLTSGEWGCCPIPEAVCCSDHQHCCPQGYTCVAEGQCQRGSEIVAGLEKMPARRASLSHPRDIGCDQHTSCPVGQTCCPSLGGSWACCQLPHAVCCEDRQHCCPAGYTCNVKARSCEKEVVSAQPATFLARSPHVGVKDVECGEGHFCHDNQTCCRDNRQGWACCPYRQGVCCADRRHCCPAGFRCAARGTKCLRREAPRWDAPLRDPALRQLLGGGGQGGGGQGGGGQEVQLLESGGGLVQPGGSLRLSCAASGRYIDETAVAWFRQAPGKGREFVAGIGGGVDITYYADSVKGRFTISRDNSKNTLYLQMNSLRPEDTAVYYCGARPGRPLITSKVADLYPYWGQGTLVTVSSPP
light: DIQMTQSPASLSASLEEIVTITCQASQDIGNWLAWYQQKPGKSPQLLIYGATSLADGVPSRFSGSRSGTQFSLKISRVQVEDIGIYYCLQAYNTPWTFGGGTKLELKRTVAAPSVFIFPPSDEQLKSGTASVVCLLNNFYPREAKVQWKVDNALQSGNSQESVTEQDSKDSTYSLSSTLTLSKADYEKHKVYACEVTHQGLSSPVTKSFNRGEC
notes: Fab fusion with the 8D3 Fab in place of H09
Take B1: the “Mature Cathepsin D levels in cell lysate (ELISA), HEK293 cells, 100 ng/mL, 24 hours” value in assay [1] is 100. In addition, the binding result in assay [2] was “no binding”.

B2: Sandwich Ex. 4 (H3.03-PGRN-C90.43) (Fab)
heavy: EVQLVESGGGLVKPGGSLRLSCVASGFTFSSYSMNWVRQAPGKGLEWVSSISRSSSYIYYADSVKGRFTISRDNAKNSLYLQMNSLRAEDTAVYYCARIHGYSNSDAFDKWGQGTLVTVSSASTKGPCVFPLAPSSKSTSGGTAALGCLVKDYFPEPVTVSWNSGALTSGVHTFPAVLQSSGLYSLSSVVTVPSSSLGTQTYICNVNHKPSNTKVDKKVEPKSCDKTHTGGGGQGGGGQGGGGQTRCPDGQFCPVACCLDPGGASYSCCRPLLDKWPTTLSRHLGGPCQVDAHCSAGHSCIFTVSGTSSCCPFPEAVACGDGHHCCPRGFHCSADGRSCFQRSGNNSVGAIQCPDSQFECPDFSTCCVMVDGSWGCCPMPQASCCEDRVHCCPHGAFCDLVHTRCITPTGTHPLAKKLPAQRTNRAVALSSSVMCPDARSRCPDGSTCCELPSGKYGCCPMPNATCCSDHLHCCPQDTVCDLIQSKCLSKENATTDLLTKLPAHTVGDVKCDMEVSCPDGYTCCRLQSGAWGCCPFTQAVCCEDHIHCCPAGFTCDTQKGTCEQGPHQVPWMEKAPAHLSLPDPQALKRDVPCDNVSSCPSSDTCCQLTSGEWGCCPIPEAVCCSDHQHCCPQGYTCVAEGQCQRGSEIVAGLEKMPARRASLSHPRDIGCDQHTSCPVGQTCCPSLGGSWACCQLPHAVCCEDRQHCCPAGYTCNVKARSCEKEVVSAQPATFLARSPHVGVKDVECGEGHFCHDNQTCCRDNRQGWACCPYRQGVCCADRRHCCPAGFRCAARGTKCLRREAPRWDAPLRDPALRQLLGGGGQGGGGQGGGGQEVQLLESGGGLVQPGGSLRLSCAASGRYIDETAVAWFRQAPGKGREFVAGIGGGVDITYYADSVKGRFTISRDNSKNTLYLQMNSLRPEDTAVYYCGARPGRPLITSKVADLYPYWGQGTLVTVSSPP
light: DIQMTQSPSAMSASVGDRVTITCRASQGISNYLAWFQQKPGKVPKRLIYAASSLQSGVPSRFSGSGSGTEFTLTISSLQPEDFATYYCLQHNSYPRTFGQGTKVEIKRTVAAPSVFIFPPSDEQLKSGTASVVCLLNNFYPREAKVQWKVDNALQSGNSQESVTEQDSKDSTYSLSSTLTLSKADYEKHKVYACEVTHQGLSSPVTKSFNRGEC
notes: Fab fusion with the H3.03 Fab in place of 8D3
B2: in assay [3], the “Mature Cathepsin D levels in cell lysate (ELISA), HEK293 cells, 100 ng/mL, 24 hours” value was determined as 66. Further, the binding result in assay [2] is “no binding”.

B3: Sandwich Ex. 1 (H09-PGRN-C90.43) (Fab)
heavy: B2 heavy with R53S, I99R, K110N, C128S
light: B2 light with N31H, A34V, R96W
notes: also called H09 Fab-PGRN-C90.43
The Kd is the equilibrium constant for the complex coming apart. Low values mean tighter binding, high ones weaker binding. One may read the koff as a measure of how fast the partners let go of each other. A word on the kon: it is a measure of how fast the partners come together. Regarding B3, in assay [4], the Kd turned out to be 7.29 nM, the koff came out at 0.00434 s⁻¹ and the on-rate constant (kon) was 595000 M⁻¹ s⁻¹. Also, in assay [5], the dissociation constant (Kd) amounted to 9.7 nM, the off-rate constant (koff) turned out to be 0.0047 s⁻¹ and the on-rate constant (kon) was determined as 485000 M⁻¹ s⁻¹.

B4: Sandwich Ex. 2 (H09-PGRNΔpGF-C90.43) (Fab)
heavy: EVQLVESGGGLVKPGGSLRLSCVASGFTFSSYSMNWVRQAPGKGLEWVSSISSSSSYIYYADSVKGRFTISRDNAKNSLYLQMNSLRAEDTAVYYCARRHGYSNSDAFDNWGQGTLVTVSSASTKGPSVFPLAPSSKSTSGGTAALGCLVKDYFPEPVTVSWNSGALTSGVHTFPAVLQSSGLYSLSSVVTVPSSSLGTQTYICNVNHKPSNTKVDKKVEPKSCDKTGGGGQGGGGQGGGGQTPTGTHPLAKKLPAQRTNRAVALSSSVMCPDARSRCPDGSTCCELPSGKYGCCPMPNATCCSDHLHCCPQDTVCDLIQSKCLSKENATTDLLTKLPAHTVGDVKCDMEVSCPDGYTCCRLQSGAWGCCPFTQAVCCEDHIHCCPAGFTCDTQKGTCEQGPHQVPWMEKAPAHLSLPDPQALKRDVPCDNVSSCPSSDTCCQLTSGEWGCCPIPEAVCCSDHQHCCPQGYTCVAEGQCQRGSEIVAGLEKMPARRASLSHPRDIGCDQHTSCPVGQTCCPSLGGSWACCQLPHAVCCEDRQHCCPAGYTCNVKARSCEKEVVSAQPATFLARSPHVGVKDVECGEGHFCHDNQTCCRDNRQGWACCPYRQGVCCADRRHCCPAGFRCAARGTKCLRREAPRWDAPLRDPALRQLLGGGGQGGGGQGGGGQEVQLLESGGGLVQPGGSLRLSCAASGRYIDETAVAWFRQAPGKGREFVAGIGGGVDITYYADSVKGRFTISRDNSKNTLYLQMNSLRPEDTAVYYCGARPGRPLITSKVADLYPYWGQGTLVTVSSPP
light: B2 light with N31H, A34V, R96W
notes: also called H09 Fab-PGRNΔpGF-C90.43; H09-dPGF-C90.43
Regarding B4, in assay [4], the Kd was determined as 7.12 nM, the off-rate (koff) stood at 0.0052 s⁻¹ and the kon was 730000 M⁻¹ s⁻¹. In addition, in assay [5], binding was put at a Kd of 13 nM, the off-rate (koff) stood at 0.00318 s⁻¹ and the kon is 244000 M⁻¹ s⁻¹.
